Common to all, as to experiment: EC50 of free RNA motif oligo competing protein binding to immobilised probe
The target of one data set is T1, PINX1 (UniProt Q96BK5).
T1 sequence: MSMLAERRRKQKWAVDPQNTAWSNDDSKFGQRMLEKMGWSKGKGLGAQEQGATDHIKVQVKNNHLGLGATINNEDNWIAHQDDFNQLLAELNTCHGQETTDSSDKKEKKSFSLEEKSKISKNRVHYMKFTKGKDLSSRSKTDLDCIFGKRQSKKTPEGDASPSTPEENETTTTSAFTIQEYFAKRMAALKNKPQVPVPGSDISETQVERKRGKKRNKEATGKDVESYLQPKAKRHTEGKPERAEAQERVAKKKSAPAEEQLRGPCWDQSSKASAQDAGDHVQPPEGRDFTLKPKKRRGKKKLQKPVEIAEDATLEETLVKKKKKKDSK
The gist of the method:
(§1)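 Kd was calculated as EC50, taken from a four-parameter log-logistic fit, multiplied by a protein-dependent depletion factor. The assay used HEK293-FT lysate (2.5 mg protein/well) pre-incubated for 1 h at 4°C with free RNA oligos (0 nM to 30 μM), then incubated for 30 min at 4°C with the matching oligos bound through a 5′-amino-C6 linker to NHS-Sepharose beads. Bound proteins were measured by label-free LC-MS/MS and normalised to the control.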

Another data set has as its target MRPL13 (UniProt Q9BYD1). The gist of the method: as §1
In another data set the target is RPSA (UniProt P08865). The gist of the method:
as §1

Another data set deals with T2, MEX3D (UniProt Q86XN8).
T2 sequence: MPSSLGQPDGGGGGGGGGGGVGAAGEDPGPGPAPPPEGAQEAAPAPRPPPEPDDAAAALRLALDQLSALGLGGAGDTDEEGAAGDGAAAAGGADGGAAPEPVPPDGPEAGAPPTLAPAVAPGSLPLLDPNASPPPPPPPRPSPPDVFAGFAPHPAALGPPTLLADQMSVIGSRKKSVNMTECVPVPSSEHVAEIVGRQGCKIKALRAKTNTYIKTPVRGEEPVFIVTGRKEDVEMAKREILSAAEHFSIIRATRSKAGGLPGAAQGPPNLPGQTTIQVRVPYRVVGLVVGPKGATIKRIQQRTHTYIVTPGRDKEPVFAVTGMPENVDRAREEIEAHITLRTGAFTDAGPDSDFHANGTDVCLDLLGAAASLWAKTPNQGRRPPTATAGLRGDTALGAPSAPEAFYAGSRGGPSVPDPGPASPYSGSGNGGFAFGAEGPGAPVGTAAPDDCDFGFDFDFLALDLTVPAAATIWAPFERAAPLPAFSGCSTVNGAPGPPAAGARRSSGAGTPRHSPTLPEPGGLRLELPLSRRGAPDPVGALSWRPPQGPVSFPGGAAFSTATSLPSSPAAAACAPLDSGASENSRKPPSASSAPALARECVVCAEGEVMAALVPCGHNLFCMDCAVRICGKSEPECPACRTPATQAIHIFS
The essentials: as §1

The next data set has as its target T3, MEX3C (UniProt Q5U5Q3).
T3 sequence: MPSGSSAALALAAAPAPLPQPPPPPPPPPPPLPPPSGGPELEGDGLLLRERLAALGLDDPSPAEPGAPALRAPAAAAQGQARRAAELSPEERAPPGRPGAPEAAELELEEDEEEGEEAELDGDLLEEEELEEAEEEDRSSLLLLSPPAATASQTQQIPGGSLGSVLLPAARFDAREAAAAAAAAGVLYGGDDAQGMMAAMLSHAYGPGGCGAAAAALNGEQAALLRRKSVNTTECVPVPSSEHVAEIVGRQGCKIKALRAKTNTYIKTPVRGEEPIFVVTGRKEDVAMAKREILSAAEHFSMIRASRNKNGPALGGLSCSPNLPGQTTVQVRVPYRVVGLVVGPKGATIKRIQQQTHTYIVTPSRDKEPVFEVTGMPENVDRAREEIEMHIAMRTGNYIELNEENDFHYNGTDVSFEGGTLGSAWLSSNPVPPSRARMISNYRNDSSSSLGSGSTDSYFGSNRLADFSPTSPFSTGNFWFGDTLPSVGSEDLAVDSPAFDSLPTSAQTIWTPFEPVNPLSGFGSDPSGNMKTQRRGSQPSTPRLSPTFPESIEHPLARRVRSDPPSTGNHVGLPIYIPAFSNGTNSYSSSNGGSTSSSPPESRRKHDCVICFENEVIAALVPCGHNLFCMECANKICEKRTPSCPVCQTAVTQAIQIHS
The gist of the method: as §1

Another data set has as its target T4, PLOD1 (UniProt Q02809).
T4 sequence: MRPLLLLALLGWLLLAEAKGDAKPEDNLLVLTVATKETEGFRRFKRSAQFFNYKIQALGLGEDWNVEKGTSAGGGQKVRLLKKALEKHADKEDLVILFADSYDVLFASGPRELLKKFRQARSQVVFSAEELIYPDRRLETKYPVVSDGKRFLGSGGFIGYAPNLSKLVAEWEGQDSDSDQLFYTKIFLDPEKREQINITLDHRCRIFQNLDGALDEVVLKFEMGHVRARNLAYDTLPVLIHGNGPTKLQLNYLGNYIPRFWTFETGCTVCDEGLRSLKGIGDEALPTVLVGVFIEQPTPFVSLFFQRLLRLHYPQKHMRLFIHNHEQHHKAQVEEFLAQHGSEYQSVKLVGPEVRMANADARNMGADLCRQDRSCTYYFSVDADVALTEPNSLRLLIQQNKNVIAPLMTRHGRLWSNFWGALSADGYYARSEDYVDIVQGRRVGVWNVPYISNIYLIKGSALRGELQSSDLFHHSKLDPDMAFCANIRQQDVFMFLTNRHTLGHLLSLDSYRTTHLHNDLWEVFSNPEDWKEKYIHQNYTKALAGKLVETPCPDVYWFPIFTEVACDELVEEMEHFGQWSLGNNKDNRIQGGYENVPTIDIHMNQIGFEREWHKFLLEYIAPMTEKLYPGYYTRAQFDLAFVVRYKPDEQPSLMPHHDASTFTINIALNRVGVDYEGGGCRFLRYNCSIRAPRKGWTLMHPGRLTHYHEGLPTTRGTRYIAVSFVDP
The gist of the method:
as §1

This note sets out measurements from the supplement of paper PMC6379048.

In general, EC50 refers to the concentration that produces a half-maximal response. Read a high EC50 as lower potency in that assay.

Consider AAUAAA, for which the EC50 in the data set with PINX1 was 2130 nM. In other words, the single-digit micromolar range.
In the case of CUGUCCU, the EC50 is 194 nM with MRPL13 and 491 nM with RPSA.
As to UAUUUAU, the EC50 was found to be 714 nM in the data set with MEX3D, 799 nM with MEX3C and 6.72 µM with PLOD1.
